Measured values taken from patent US20240156863A1 (MorphoSys, published 2024).

Target: T1, Human CD19 (human, UniProt P15391 20-556)
T1 construct: Endogenous CD19 on the CD19+ cell lines Jeko (JeKo-1), Nalm-6 and Ly7; also called B-lymphocyte antigen CD19; B4
T1 sequence: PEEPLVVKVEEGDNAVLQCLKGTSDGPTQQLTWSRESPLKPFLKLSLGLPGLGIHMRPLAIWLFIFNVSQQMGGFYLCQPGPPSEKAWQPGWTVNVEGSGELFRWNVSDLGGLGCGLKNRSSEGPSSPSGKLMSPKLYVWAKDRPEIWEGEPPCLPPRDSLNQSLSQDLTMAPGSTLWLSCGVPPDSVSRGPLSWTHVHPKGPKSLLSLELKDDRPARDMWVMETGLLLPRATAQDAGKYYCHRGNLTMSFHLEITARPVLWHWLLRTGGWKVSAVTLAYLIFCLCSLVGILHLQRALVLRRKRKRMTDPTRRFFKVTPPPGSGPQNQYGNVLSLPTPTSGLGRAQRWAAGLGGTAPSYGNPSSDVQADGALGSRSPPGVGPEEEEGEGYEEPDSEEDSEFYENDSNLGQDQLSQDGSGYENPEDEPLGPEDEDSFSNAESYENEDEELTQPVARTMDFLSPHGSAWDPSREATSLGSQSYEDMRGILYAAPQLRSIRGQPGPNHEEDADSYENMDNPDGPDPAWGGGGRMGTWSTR
Test: Pre-incubation of CD19+ Nalm-6 or Jeko cells, then flow cytometry with FMC63 as competitor
Protocol: FIG. 2: Clone FMC63 (CD19 binding domain in CART19) and tafasitamab compete for CD19 binding. After 4 hours of treatment of Jeko cells with 2 or 0.5 mg/mL of tafasitamab, flow cytometry using the FMC63 anti-CD19 antibody was performed.
It was studied, whether the observed CART19 activity may be influenced by tafasitamab in case of a direct CD19 binding competition between tafasitamab and the CAR. To first test for such binding competition, the CD19+ cell lines Nalm-6 or Jeko were incubated with 2 or 0.5 mg/mL tafasitamab, to saturate the receptors. […] To investigate for any potential impact of such binding competition on CART19 cell effector functions, tafasitamab was incubated with target cells (CD19+ cell lines Jeko, Ly7 or Nalm-6) at increasing concentrations and then CART19 cells were added at different effector: target ratios (0.1:1 to 10:1), without other effector cells to the cell culture.

B1: tafasitamab (antibody, human IgG1, kappa, V domains shown)
VH: EVQLVESGGGLVKPGGSLKLSCAASGYTFTSYVMHWVRQAPGKGLEWIGYINPYNDGTKYNEKFQGRVTISSDKSISTAYMELSSLRSEDTAMYYCARGTYYYGTRVFDYWGQGTLVTVSS
VL: DIVMTQSPATLSLSPGERATLSCRSSKSLQNVNGNTYLYWFQQKPGQSPQLLIYRMSNLNSGVPDRFSGSGSGTEFTLTISSLEPEDFAVYYCMQHLEYPITFGAGTKLEIKR
notes: Fc-enhanced, humanized monoclonal anti-CD19 antibody; also called MOR00208; MOR208
B1: binds.
